According to patent US20140179896A1 (published 2014):

What was measured:
[1] = biological target: mouse vascular endothelial growth factor receptor-2 Fc chimera (Flk-1-Fc) (mouse) (UniProt P35918); test: assay not given
[2] = biological target: T1, human vascular endothelial growth factor receptor-2 Fc chimera (KDR-Fc) (human, UniProt P35968 20-764); test: BIAcore, target-Fc immobilized
T1 construct: range 1-764; purchased from R&D Systems; also called hKDR; human VEGF-R2-Fc; not shown: human IgG1 Fc
Description: (§1) The binding kinetics of fibronectin-based scaffold proteins binding proteins to the target was measured using BIAcore 2000 biosensor (Pharmacia Biosensor). Human and mouse VEGF-R2-Fc fusions were immobilized onto a CM5 sensor chip and soluble binding proteins were injected at concentrations ranging from 0 to 100 nM in buffer 0 (10 mM HEPES, 150 mM NaCl, 0.005% Tween 20, pH 7.4). Sensorgrams were obtained at each concentration and were evaluated using a program, BIA Evaluation 2.0 (BIAcore), to determine the rate constants kₐ (kₒₙ) and kd (koff.) The affinity constant, KD was calculated from the ratio of rate constants […].

[3] = biological target: T2, mouse vascular endothelial growth factor receptor-2 Fc chimera (Flk-1-Fc) (mouse, UniProt P35918 20-762); test: Kd for Flk-1 against clone 159Q(8)L
T2 construct: Purchased from R&D Systems; also called mouse VEGF-R2; not shown: Fc part of the purchased chimera
T2 sequence (P35918 20-762, stated change not applied): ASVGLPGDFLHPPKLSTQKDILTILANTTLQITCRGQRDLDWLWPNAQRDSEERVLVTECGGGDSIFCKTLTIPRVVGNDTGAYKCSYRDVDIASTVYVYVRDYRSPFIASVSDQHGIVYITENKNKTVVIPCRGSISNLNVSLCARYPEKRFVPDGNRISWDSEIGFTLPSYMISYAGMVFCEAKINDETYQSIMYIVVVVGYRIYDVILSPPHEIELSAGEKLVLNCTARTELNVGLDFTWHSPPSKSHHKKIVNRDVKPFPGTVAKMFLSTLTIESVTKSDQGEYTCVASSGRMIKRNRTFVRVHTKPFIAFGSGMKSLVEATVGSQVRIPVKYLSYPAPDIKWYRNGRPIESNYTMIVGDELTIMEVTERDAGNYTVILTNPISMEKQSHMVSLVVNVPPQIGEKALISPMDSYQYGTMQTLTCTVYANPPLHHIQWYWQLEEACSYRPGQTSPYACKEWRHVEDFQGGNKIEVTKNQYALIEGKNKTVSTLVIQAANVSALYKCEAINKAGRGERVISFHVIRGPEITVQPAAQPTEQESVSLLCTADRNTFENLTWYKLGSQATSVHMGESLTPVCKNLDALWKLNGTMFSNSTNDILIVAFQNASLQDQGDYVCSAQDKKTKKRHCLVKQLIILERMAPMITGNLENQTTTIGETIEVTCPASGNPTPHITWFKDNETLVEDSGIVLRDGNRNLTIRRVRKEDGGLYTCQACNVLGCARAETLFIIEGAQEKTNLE

[4] = biological target: full-length human KDR on cells (human, UniProt P35968 20-1356); test: cell-based or functional assay
[5] = biological target: T3, murine VEGFR-2/EpoR chimera (flk-1/EpoR fusion, pmKE2) on cells (mouse; human, UniProt P35918 20-762; P19235 251-508, limits assumed); test: cell-based or functional assay
T3 sequence (P35918 other isoform, or with tags, fused parts or gaps mutant limits assumed, form in doubt): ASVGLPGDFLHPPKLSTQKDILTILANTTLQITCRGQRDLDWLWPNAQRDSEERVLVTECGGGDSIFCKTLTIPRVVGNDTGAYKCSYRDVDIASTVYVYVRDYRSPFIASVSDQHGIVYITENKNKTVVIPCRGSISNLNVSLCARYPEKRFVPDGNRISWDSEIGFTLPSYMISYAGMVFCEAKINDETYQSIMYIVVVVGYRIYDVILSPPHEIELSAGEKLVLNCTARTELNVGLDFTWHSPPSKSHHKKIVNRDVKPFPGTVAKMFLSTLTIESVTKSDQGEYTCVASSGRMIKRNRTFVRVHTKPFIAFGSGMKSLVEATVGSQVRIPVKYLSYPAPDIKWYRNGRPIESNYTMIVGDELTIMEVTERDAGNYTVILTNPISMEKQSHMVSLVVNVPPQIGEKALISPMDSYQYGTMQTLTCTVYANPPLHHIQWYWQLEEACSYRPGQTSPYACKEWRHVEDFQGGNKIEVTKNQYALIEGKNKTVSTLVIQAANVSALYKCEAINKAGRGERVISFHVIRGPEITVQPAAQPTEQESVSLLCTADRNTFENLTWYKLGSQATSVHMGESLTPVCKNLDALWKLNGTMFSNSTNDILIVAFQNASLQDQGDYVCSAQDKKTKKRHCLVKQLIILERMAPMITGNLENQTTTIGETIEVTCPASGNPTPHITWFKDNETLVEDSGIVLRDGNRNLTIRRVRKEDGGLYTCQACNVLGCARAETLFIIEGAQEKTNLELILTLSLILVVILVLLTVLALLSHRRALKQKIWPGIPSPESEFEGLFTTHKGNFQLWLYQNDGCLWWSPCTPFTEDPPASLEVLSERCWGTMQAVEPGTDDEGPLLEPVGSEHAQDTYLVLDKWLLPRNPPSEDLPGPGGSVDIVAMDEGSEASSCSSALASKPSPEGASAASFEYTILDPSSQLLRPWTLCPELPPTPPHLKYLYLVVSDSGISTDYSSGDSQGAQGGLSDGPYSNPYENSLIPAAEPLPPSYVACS

[6] = biological target: human KDR/EpoR fusion (phKE8) on Ba/F3 cells (human, UniProt P35968 20-764; P19235 251-508, limits assumed); test: cell-based or functional assay
[7] = biological target: T4, mouse vascular endothelial growth factor receptor-2 Fc chimera (Flk-1-Fc) (mouse, UniProt P35918 20-762); test: BIAcore, target-Fc immobilized
T4 construct: purchased from R&D Systems; also called mouse VEGF-R2-Fc; not shown: Fc part of the purchased chimera
Description: as §1
T4 sequence (P35918 20-762, stated change not applied): as the sequence (P35918 20-762, stated change not applied) above

[8] = biological target: T5, full-length human KDR on cells (human, UniProt P35968 20-1356); test: cell-based or functional assay; remark: listed apart in the source
[9] = biological target: T6, human vascular endothelial growth factor receptor-2 Fc chimera (KDR-Fc) (human, UniProt P35968 20-764); test: radioactive equilibrium binding (assay not given)
T6 construct: range 1-764; also called human VEGFR-2; hKDR; not shown: human IgG1 Fc
Description: (§2) To prepare ³⁵S-labeled binding proteins for analysis, mRNA was prepared as described above for RNA-protein fusion production but the linker ligation step was omitted. The mRNA was expressed using rabbit reticulocyte lysate translation kit (Ambion) in the presence of ³⁵S-labeled Met at 30° C. for 1 hour. Expressed protein was purified on M2-agarose Flag beads (Sigma) as described above. This procedure produced the encoded protein without the nucleic acid tail. In a direct binding assay, VEGF-R2-Fc fusions in concentrations ranging from 0 to 200 nM were added to a constant concentration of the purified protein (0.2 or 0.5 nM) and incubated at 30° C. for 1 hour in buffer B. The receptor-binder complexes were captured using Protein A magnetic beads for another 10 minutes at room temperature using a Kingfisher™ The beads were washed with six reaction volumes of buffer B. The protein was eluted from the beads with 100 μL of 0.1 M KOH. […] of the reaction mixture and elution were dried onto a LumaPlate-96 (Packard) and the amount of ³⁵S on the plate was measured using a TopCount NXT instrument (Packard). The amount of fibronectin-based scaffold protein bound to the target was estimated as a percent of radioactivity eluted from Protein A magnetic beads compare to radioactivity in the reaction mixture. Nonspecific binding of fibronectin-based scaffold proteins to the beads was determined by measuring binding in the absence of KDR-Fc and represented less than 1-2% of the input. Specific binding was obtained through subtraction of nonspecific binding from total binding. Data was analyzed using the GraphPad Prizm software (GraphPad Software, Inc, San Diego, Calif.), fitted using a one site, non-linear binding equation.

[10] = biological target: T2, mouse vascular endothelial growth …; test: radioactive equilibrium binding (assay not given)
Description: as §2

[11] = biological target: T6, human vascular endothelial growth …; test: binding to 1 nM KDR-Fc, % of input; radioactive equilibrium binding (assay not given)
Description: as §2

[12] = biological target: T2, mouse vascular endothelial growth …; test: binding to 1 nM Flk-1-Fc, % of input; radioactive equilibrium binding (assay not given)
Description: as §2

[13] = biological target: T3, murine VEGFR-2/EpoR chimera (flk-1/EpoR …); test: flow cytometry on CHO Flk-1 cells
Description: (§3) The functionality of KDR and Flk-1 binding molecules in a cell culture model system was evaluated with E. coli produced binding molecules.
(§4) Binding of fibronectin-based scaffold protein to cell-surface KDR and Flk-1 was analyzed simultaneously on VEGF-R2-expressing and control cells by flow cytometry. CHO-pcDNA3 cells (control) were released from their dishes with trypsin-EDTA, washed in Dulbecco's PBS without calcium and magnesium (D-PBS⁻; Invitrogen), and stained for 30 minutes at 37° C. with 1.5 μM CMTMR (5-(and -6)-(((4-chloromethyl)benzoyl)amino)-tetramethylrhodamine) (Molecular Probes). The cells were washed in D-PBS⁻ and incubated for a further 30 minutes at 37° C., and then resuspended in blocking buffer (D-PBS⁻/10% fetal bovine serum) on ice. CHO-KDR or CHO-Flk cells were treated identically except that CMTMR was omitted. 75,000 of CMTMR-stained CHO-pcDNA3 cells were mixed with an equal number of unstained CHO-KDR or CHO-Flk cells in each well of a V-bottom 96-well plate. All antibodies and fibronectin-based scaffold proteins were diluted in 25 μl/well of blocking buffer, and each treatment was conducted for 1 hour at 4° C. Cell mixtures were stained with His₆-tagged (SEQ ID NO: 235) fibronectin-based scaffold proteins, washed twice with cold D-PBS⁻, and then treated with 2.5 μg/ml anti-His₆ (SEQ ID NO: 235) MAb (R&D Systems), washed, and stained with 4 μg/ml Alexa Fluor 488-conjugated anti-mouse antibody (Molecular Probes). For cells treated with an anti-KDR mouse monoclonal antibody (Accurate Chemical, Westbury, N.Y.) or an anti-flk-1 goat polyclonal antibody (R&D Systems), the anti-His₆ (SEQ ID NO: 235) step was omitted, and antibody binding was detected with the species-appropriate Alexa Fluor 488 conjugated secondary antibody (Molecular Probes). Following staining, cells were resuspended in 200 μl/well D-PBS⁻/1% FBS/1 μg/ml 7-aminoactinomycin D (7-AAD; Molecular Probes) and analyzed by flow cytometry on a FACSCalibur (Becton Dickinson, San Jose, Calif.) equipped with a […].

[14] = biological target: T1, human vascular endothelial growth …; test: radioactive equilibrium binding assay
Description: as §2

[15] = biological target: T4, mouse vascular endothelial growth …; test: radioactive equilibrium binding assay
Description: as §2

[16] = biological target: T5, full-length human KDR on cells; test: flow cytometry on CHO KDR cells
Description: as §3, §4

[17] = biological target: T2, mouse vascular endothelial growth …; test: KD against mouse Flk-1 by the BIAcore binding assay; value not given
Description: Following the methodologies described in the preceding Examples, additional ¹⁰Fn3-based KDR binding proteins were generated. As described for the development of the M5FL protein in Example 5, above, proteins were tested for KD against human KDR and mouse Flk-1 using the BIAcore binding assay and for IC50 in a Ba/F3 assay.
as §1

Chain of mouse vascular endothelial growth factor receptor-2 Fc chimera (Flk-1-Fc) (mouse) (P35918 20-762, change not shown): as the sequence (P35918 20-762, stated change not applied) above

Row | Kd [2] [nM] | koff [2] [s⁻¹] | kon [2] [M⁻¹ s⁻¹] | Inhibition of VEGF-induced proliferation, Ba/F3-Flk (IC50, nM) [5] [nM] | Inhibition of VEGF-induced proliferation, Ba/F3-KDR (IC50, nM) [6] [nM] | Kd [7] [nM] | koff [7] [s⁻¹] | kon [7] [M⁻¹ s⁻¹] | Inhibition of VEGF-induced proliferation of HUVEC cells (IC50, nM) [8] [nM] | EC50 [13] [nM] | Kd [14] [nM] | Kd [15] [nM] | EC50 [16] [nM] | Binder | also measured
1 | 2 | 0.0001 | 50000 |  |  |  |  |  |  |  |  |  |  | 159(Q8L) (designed binder, clone 159 with Q8 corrected to the wild type L; His6-tagged E. coli protein in BIAcore, tag left out; also called Clone 159 (Q8L)) VSDVPRDLEVVAATPTSLLISWRHPHFPTRYYRITYGETGGNSPVQEFTVPLQPPAATISGLKPGVDYTITGYAVTMAQSGHELFTPISINYRT | Kd [1]: > 3000 nM
2 | 0.46 | 0.000121 | 260000 | 2.4 | 5.4 | 0.33 | 0.000195 | 600000 | 12.8 | 0.9 | < 1.2 | < 0.5 | 4.2 | E18 (designed binder, Del 1-8 10Fn3 clone; Flag-tagged in vitro translated protein in the radioactive assay, His6-tagged E. coli protein in BIAcore and cell assays; tags left out) EVVAATPTSLLISWRHPHFPTRYYRITYGETGGNSPVQEFTVPLQPPTATISGLKPGVDYTITGYAVTVERNGRELNTPISINYRT | 
3 | 0.19 | 7e-05 | 360000 | 4.7 | 10 | 0.37 | 0.000288 | 790000 | 8.4 | 0.6 | < 1.5 | < 0.9 | 2.3 | E29 (designed binder, Del 1-8 10Fn3 clone; Flag-tagged in vitro translated protein in the radioactive assay, His6-tagged E. coli protein in BIAcore and cell assays; tags left out) EVVAATPTSLLISWRHPHFPTRYYRITYGETGGNSPVQEFTVPLQPPTATISGLKPGVDYTITGYAVTVERNGRVLMTPISINYRT | 
4 | 0.06 | 1.7e-05 | 300000 | 5.8 | 12.3 | 0.34 | 0.000223 | 660000 | 11.8 | 5.3 | < 1.3 | < 0.7 | 7.6 | E19 (designed binder, Del 1-8 10Fn3 clone; Flag-tagged in vitro translated protein in the radioactive assay, His6-tagged E. coli protein in BIAcore and cell assays; tags left out) EVVAATPTSLLISWRHPHFPTRYYRITYGETGGNSPVQEFTVPLQPPTATISGLKPGVDYTITGYAVTVERNGRHLMTPISINYRT | 

Continued, binder first:

Row | Binder | Kd [2] [nM] | koff [2] [s⁻¹] | kon [2] [M⁻¹ s⁻¹] | Inhibition of VEGF-induced proliferation, Ba/F3-Flk (IC50, nM) [5] [nM] | Inhibition of VEGF-induced proliferation, Ba/F3-KDR (IC50, nM) [6] [nM] | Kd [7] [nM] | koff [7] [s⁻¹] | kon [7] [M⁻¹ s⁻¹] | Inhibition of VEGF-induced proliferation of HUVEC cells (IC50, nM) [8] [nM] | EC50 [13] [nM] | Kd [14] [nM] | Kd [15] [nM] | EC50 [16] [nM] | also measured
5 | M5FL (designed binder, 10Fn3 clone with WT N-terminus; Tail and tag not included here; also called clone M5FL) VSDVPRDLEVVAATPTSLLISWRHPHFPTRYYRITYGETGGNSPVQEFTVPLQPPLATISGLKPGVDYTITGYAVTKERNGRELFTPISINYRT |  |  |  |  |  |  |  |  |  |  |  |  |  | fold improvement over the original clone (159Q(8)L) [3]: 1000 fold; HUVEC proliferation assay: decrease in proliferation [4]: ~40%
6 | M5FL (designed binder, extension and tag left out) VSDVPRDLEVVAATPTSLLISWRHPHFPTRYYRITYGETGGNSPVQEFTVPLQPPLATISGLKPGVDYTITGYAVTKERNGRELFTPISINYRT | 0.89 | 9.2e-05 | 100000 | 5.1 | 3.9 | 2.1 | 0.000582 | 280000 | 8.5 |  |  |  |  | 
7 | E29 (designed binder, Del 1-8 10Fn3 clone; Tags not included) EVVAATPTSLLISWRHPHFPTRYYRITYGETGGNSPVQEFTVPLQPPTATISGLKPGVDYTITGYAVTVERNGRVLMTPISINYRT |  |  |  |  |  |  |  |  |  |  |  |  |  | Kd [9]: 1.51 nM; Kd [10]: 0.91 nM; Binding to 1 nM KDR, % [11]: 41%; Binding to 1 nM FLK, % [12]: 44%; HUVEC proliferation assay: decrease in proliferation [4]: ~40%
8 | E26 (designed binder, Del 1-8 10Fn3 clone; Flag-tagged in vitro translated protein in the radioactive assay, His6-tagged E. coli protein in BIAcore and cell assays; tags left out) EVVAATPTSLLISWRHPHFPTRYYRITYGETGGNSPVQEFTVPLQPPTATISGLKPGVDYTITGYAVTVERNGRELMTPISINYRT | 0.51 | 5.8e-05 | 110000 | 5.3 | 3.2 | 2.14 | 0.000477 | 220000 | 14 | 1.3 | < 1.7 | 2 | 2.6 | 
9 | CT-01 (designed binder, Core form of CT-01) EVVAATPTSLLISWRHPHFPTRYYRITYGETGGNSPVQEFTVPLQPPTATISGLKPGVDYTITVYAVTDGRNGRLLSIPISINYRT |  |  |  |  |  |  |  |  |  |  |  |  |  | binding result [17]: binds
